The target in data set [1] is His10-UpaGΔ2(Y1735am) (E. coli O6:H1 strain CFT073). Description: SDS-PAGE of unheated (25 °C) against heated (99 °C) samples after Ni-NTA purification; cells radiolabelled, UV irradiated and PK treated; membranes solubilised in 2% DDM, Ni-NTA in 50 mM NaH2PO4 pH 8, 500 mM NaCl, 0.05% DDM; eluate kept at 25 or 99 °C in SDS sample buffer for 5 min.
Data set [2] concerns the molecule itself. Description: SDS- and heat-resistant oligomers on SDS-PAGE after pulse-chase labelling and immunoprecipitation; cells grown in M9 minimal medium at 37 °C, pTrc99a derivatives; TCA precipitation, immunoprecipitation with anti-HA or anti-UpaG antiserum, samples heated to 99 °C for 5 min, 8-16% Tris-glycine gels.

Take “His10-UpaGΔ2(Y1735am) (from UniProt A0A0H2VCA1 1609-1778) (domain or fragment)”: in data set [1], the stoichiometry N (in general, a count of units in the complex or per binding partner) stood at 3.

B1: HA-UpaGΔ2 (domain or fragment)
chain: AGVNATDAVNVSQLKSSEAGGVRYDTKADGSIDYSNITLGGGNSGTTRISNVSAGVNNNDAVNYAQLKQSVQETKQYTDQRMVEMDNKLSKTESKLSGGIASAMAMTGLPQAYTPGASMASIGGGTYNGESAVALGVSMVSANGRWVYKLQGSTNSQGEYSAALGAGIQW
notes: UpaG, trimeric autotransporter adhesin of uropathogenic E. coli O6:H1 strain CFT073; the C-terminal 170 residues (passenger-domain fragment 1609-1689 and beta-domain segment 1689-1778) of the 1778 residue full-length protein; Made with the native UpaG signal peptide (residues 1-53) before the HA tag; the signal peptide is meant to be cleaved on export; Two glycines were inserted between signal …
As for B1, the “stoichiometry N” value in data set [2] was 3.

(Values after article PMC5670179, “Folding of a bacterial integral outer membrane protein is initiated in the periplasm” (Nature Communications, 2017).)
